Experimental data: patent publication US20240390512A1 (Daiichi Sankyo, published 2024)

T1: EC5 deletion mutant of human CDH6, on cells (human, UniProt P55285 54-790)
T1 construct: in p3×FLAG-CMV-9; also called EC5-deleted hCDH6
T1 sequence: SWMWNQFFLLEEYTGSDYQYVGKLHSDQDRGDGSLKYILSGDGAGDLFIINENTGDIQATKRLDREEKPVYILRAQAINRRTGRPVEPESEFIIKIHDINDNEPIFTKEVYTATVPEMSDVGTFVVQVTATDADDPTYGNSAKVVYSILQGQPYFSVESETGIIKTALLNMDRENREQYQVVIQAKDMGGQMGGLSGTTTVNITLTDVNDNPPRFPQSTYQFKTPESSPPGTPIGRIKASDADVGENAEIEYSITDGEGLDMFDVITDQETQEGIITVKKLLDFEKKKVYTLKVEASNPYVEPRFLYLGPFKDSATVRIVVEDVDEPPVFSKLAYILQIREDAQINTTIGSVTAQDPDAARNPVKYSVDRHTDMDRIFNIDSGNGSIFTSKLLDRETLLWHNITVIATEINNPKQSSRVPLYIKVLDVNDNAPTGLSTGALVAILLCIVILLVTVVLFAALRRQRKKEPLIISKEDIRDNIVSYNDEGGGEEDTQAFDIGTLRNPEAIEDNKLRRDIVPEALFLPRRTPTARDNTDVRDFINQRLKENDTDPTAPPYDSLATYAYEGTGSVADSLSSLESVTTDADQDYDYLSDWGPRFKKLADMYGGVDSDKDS

T2: human CDH6 (cadherin-6), full-length, on cells (human, UniProt P55285 54-790)
T2 construct: also called hCDH6; full-length hCDH6
T2 sequence: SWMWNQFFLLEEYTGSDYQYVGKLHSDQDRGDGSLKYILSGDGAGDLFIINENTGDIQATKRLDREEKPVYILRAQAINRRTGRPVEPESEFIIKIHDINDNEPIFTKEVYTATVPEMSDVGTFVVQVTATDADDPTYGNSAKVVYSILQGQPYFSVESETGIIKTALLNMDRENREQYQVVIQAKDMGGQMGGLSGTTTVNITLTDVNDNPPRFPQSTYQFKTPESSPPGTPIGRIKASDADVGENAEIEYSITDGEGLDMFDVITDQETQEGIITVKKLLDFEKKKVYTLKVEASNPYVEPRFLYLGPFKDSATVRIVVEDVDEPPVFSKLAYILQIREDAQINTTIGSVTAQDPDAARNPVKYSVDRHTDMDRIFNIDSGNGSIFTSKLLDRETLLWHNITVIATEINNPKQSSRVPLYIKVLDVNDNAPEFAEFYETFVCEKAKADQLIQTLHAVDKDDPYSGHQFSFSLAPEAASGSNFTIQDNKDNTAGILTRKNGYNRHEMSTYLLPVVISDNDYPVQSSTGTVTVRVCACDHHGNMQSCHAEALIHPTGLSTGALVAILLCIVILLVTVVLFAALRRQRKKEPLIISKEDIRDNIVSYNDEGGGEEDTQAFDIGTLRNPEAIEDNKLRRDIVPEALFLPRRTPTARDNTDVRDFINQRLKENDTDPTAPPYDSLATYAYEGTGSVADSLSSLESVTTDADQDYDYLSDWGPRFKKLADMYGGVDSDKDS

T3: Recombinant Human CDH6 Fc His chimera (R&D Systems, Inc.) (human, UniProt P55285 54-615)
T3 construct: Bought reagent; also called the antigen; human CDH6 antigen; Fc part of the bought chimera not given; His tag of the bought chimera
T3 sequence: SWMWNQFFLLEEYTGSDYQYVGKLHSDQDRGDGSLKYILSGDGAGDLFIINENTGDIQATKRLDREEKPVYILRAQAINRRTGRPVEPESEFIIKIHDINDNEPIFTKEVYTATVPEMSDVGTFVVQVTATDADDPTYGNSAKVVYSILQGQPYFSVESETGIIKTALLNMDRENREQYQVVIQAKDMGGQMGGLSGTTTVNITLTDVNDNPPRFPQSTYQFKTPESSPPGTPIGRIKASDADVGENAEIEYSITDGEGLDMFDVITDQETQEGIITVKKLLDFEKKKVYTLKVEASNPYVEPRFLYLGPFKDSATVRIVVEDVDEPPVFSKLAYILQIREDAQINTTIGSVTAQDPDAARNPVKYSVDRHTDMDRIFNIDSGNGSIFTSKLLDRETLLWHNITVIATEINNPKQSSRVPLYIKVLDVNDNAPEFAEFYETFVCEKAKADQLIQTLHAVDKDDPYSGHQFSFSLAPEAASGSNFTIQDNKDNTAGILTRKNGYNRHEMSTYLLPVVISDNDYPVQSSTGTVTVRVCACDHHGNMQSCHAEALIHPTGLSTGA

T4: mouse CDH6, on cells (mouse, UniProt P97326 54-790)
T4 construct: also called mCDH6; NP_031692
T4 sequence: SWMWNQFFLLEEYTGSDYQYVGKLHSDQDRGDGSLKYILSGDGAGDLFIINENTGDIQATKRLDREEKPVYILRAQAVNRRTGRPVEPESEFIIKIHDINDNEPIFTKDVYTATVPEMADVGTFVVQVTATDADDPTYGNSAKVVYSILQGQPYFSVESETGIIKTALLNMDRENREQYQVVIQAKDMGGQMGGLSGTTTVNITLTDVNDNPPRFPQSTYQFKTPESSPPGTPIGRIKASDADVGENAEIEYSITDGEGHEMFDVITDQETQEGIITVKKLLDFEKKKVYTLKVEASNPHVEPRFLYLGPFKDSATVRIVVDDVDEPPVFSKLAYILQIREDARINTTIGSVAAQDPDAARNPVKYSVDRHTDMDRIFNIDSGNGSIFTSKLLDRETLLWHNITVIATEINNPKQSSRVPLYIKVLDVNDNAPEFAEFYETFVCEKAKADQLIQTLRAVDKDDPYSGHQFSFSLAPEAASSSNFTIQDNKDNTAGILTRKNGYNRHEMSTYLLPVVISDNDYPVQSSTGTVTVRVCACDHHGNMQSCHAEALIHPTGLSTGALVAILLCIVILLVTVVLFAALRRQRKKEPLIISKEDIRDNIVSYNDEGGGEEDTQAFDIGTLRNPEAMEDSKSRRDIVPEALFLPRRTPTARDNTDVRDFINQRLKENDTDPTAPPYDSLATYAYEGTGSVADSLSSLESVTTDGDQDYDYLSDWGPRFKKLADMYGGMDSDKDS

T5: rat CDH6, on cells (rat, UniProt P55280 54-789)
T5 construct: also called rCDH6; NP_037059
T5 sequence: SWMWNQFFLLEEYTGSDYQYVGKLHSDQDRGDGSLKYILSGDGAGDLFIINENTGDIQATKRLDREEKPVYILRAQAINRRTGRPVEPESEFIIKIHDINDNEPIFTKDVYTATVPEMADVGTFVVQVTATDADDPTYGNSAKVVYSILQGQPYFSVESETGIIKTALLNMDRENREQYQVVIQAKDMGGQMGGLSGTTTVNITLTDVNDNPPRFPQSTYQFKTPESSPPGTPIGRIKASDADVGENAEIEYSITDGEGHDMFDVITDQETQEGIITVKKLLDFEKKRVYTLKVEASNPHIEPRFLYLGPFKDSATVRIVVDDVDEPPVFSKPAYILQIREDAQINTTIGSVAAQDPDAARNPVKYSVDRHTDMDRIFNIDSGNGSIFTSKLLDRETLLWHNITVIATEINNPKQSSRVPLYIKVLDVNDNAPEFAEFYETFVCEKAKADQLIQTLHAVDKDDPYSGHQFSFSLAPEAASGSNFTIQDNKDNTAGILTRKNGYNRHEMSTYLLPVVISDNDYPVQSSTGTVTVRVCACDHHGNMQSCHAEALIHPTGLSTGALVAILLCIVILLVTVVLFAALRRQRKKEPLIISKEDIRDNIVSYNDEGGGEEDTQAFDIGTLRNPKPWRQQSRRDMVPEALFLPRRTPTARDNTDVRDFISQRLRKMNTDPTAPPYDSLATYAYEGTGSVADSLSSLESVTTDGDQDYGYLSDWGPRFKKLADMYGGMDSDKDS

T6: EC3 deletion mutant of human CDH6, on cells (human, UniProt P55285 54-790)
T6 construct: in p3×FLAG-CMV-9; also called EC3-deleted hCDH6
T6 sequence: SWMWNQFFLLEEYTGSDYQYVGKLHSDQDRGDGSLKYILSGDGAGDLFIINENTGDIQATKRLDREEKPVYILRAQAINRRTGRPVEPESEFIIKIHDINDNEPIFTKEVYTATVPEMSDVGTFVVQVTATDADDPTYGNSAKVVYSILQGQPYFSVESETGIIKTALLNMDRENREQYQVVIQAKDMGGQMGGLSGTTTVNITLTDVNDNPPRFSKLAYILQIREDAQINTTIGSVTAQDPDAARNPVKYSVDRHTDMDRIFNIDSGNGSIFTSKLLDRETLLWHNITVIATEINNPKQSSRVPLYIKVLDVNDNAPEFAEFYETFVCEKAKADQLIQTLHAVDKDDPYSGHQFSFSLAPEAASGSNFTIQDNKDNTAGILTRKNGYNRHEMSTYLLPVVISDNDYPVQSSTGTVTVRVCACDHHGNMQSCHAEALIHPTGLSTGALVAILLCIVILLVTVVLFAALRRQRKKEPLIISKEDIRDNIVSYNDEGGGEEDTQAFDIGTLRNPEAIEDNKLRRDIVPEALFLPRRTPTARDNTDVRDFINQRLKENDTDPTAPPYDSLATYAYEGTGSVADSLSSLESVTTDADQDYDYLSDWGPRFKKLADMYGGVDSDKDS


How the values were obtained:
[1] = biological target: T1, EC5 deletion mutant of human CDH6, on …; assay: flow cytometry; 293α cells transfected with EC5-deleted hCDH6 (open line) against untransfected 293α cells (shaded); APC anti-human IgG goat F(ab')2; antibody concentration not given
[2] = biological target: T2, human CDH6 (cadherin-6), full-length, …; assay: flow cytometry; 293α cells transfected with full-length hCDH6 (open line) against untransfected 293α cells (shaded); APC anti-human IgG goat F(ab')2; antibody concentration not given
[3] = biological target: T3, Recombinant Human CDH6 Fc His chimera …; assay: SPR (Biacore T200); antigen captured by immobilized anti-His antibody, antibody as analyte 0.391 to 100 nM; steady state affinity model
mouse CDH6, on cells = biological target: T4, mouse CDH6, on cells; assay: flow cytometry; 293α cells transfected with mCDH6; PE anti-human IgG Fc(gamma) goat F(ab')
rat CDH6, on cells = biological target: T5, rat CDH6, on cells; assay: flow cytometry; 293α cells transfected with rCDH6; PE anti-human IgG Fc(gamma) goat F(ab')
[4] = biological target: T6, EC3 deletion mutant of human CDH6, on …; assay: flow cytometry; 293α cells transfected with EC3-deleted hCDH6 (open line) against untransfected 293α cells (shaded); APC anti-human IgG goat F(ab')2; antibody concentration not given

| binding result [1] | binding result [2] | Kd [3] [nM] | binding result [4] | Binder | binding result (mouse CDH6, on cells) | binding result (rat CDH6, on cells) |
| --- | --- | --- | --- | --- | --- | --- |
| no binding | binds |  |  | anti-CDH6 antibody NOV0712 (antibody, human IgG1, kappa, V domains shown, Made after WO 2016/024195; also called NOV0712 antibody) VH: QVQLLESGGGLVQPGGSLRLSCAASGFTFSSHGMHWVRQAPGKGLEWVSVISGSGSNTGYADSVKGRFTISRDNSKNTLYLQMNSLRAEDTAVYYCARQWGSYAFDSWGQGTLVTVSS VL: DIQMTQSPSSLSASVGDRVTITCRASQSISSYLNWYQQKPGKAPKLLIYAVSTLQSGVPSRFSGSGSGTDFTLTISSLQPEDFATYYCQQSGTFPPTTFGQGTKVEIKR |  |  |
|  |  | 1.1 | no binding | humanized anti-CDH6 antibody H04L02 (antibody, human IgG1, kappa, V domains shown, hH04 heavy chain and hL02 light chain, human IgG1 / kappa; also called H04L02 antibody) VH: QVQLVQSGAEVKKPGASVKVSCKASGYTFTRNFMHWIRQAPGQGLEWMGWIYPGDGETEYAQKFQGRVTLTADRSTSTAYMELSSLRSEDTAVYYCARGVYGGFAGGYFDFWGQGTLVTVSS VL: DIQMTQSPSSLSASVGDRVTITCKASQNIYKNLAWYQQKPGKAPKLLIYDANTLQTGVPSRFSGSGSGSDFTLTISSLQPEDFATYFCQQYYSGWAFGQGTKVEIKR | no binding (tested: about 4, unit not printed on the axis) | no binding (tested: about 4, unit not printed on the axis) |
